We go through one substance from FireProtDB.

The conditions of this series: Bos taurus; pH 8; 30 °C; GdnHCl; CD; borate 10 mM.

Sequence of Phospholipase A2 wild type, P00593 (P00593 whole entry): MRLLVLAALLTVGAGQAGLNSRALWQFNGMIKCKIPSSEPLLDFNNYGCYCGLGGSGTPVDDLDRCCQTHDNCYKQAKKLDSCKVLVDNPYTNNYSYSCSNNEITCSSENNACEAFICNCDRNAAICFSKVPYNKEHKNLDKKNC

As for Phospholipase A2 wild type, P00593, the denaturant m value was 1.47 kcal/mol/M, the “denaturant midpoint (higher = more stable)” value worked out at 6.9 M and the unfolding free energy was 9.5 kcal/mol.
